Measured values published in patent US20230192897A1 (NUMAB THERAPEUTICS, published 2023).

Tests used:
Fc tagged human PDL1 = target: T1, Fc tagged human PDL1 (human, UniProt Q9NZQ7 19-239); assay: SPR
T1 construct: Bought (Sino Biological, cat. 10084-H02H); captured on the SPR chip; also called PDL1-Fc chimeric protein
In short: (§1)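 Kinetics were fitted with a one-to-one Langmuir model to give apparent ka, kd and KD. Binders at 0.12-90 nM (three-fold series) flowed 3 min, with 10 min dissociation and 3 M MgCl₂ regeneration, on a Biacore T200.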

Fc tagged human CD137 = target: T2, Fc tagged human CD137 (human, UniProt Q07011 24-186); assay: SPR
T2 construct: also called CD137-Fc chimeric protein
In short: as §1

human PDL1 on cells = human PDL1 on cells (human, UniProt Q9NZQ7 19-290); assay: cell-based or functional assay
[1] = target: CD137 on Jurkat NFkB reporter cells (human, UniProt Q07011 24-255); assay: cell-based or functional assay
mouse serum albumin = target: T3, mouse serum albumin (mouse, UniProt P07724 25-608); assay: SPR, SA coupled to chip
T3 construct: Coupled directly to the CM5 chip; also called MSA; mouse SA
Protocol: (§2) Affinity of molecules to serum albumin (SA) of the different species was determined by SPR measurements using a Biacore T200 device (GE Healthcare). SA was directly coupled to a CM5 sensor chip (GE Healthcare) using amine coupling chemistry. […] The assay was run in a 1× PBS-Tween buffer at pH 5.5.

human serum albumin = target: T4, human serum albumin (human, UniProt P02768 25-609); assay: SPR, SA coupled to chip, pH 5.5
T4 construct: Coupled directly to the CM5 chip; also called HSA; human SA
Protocol: as §2

Kd (Fc tagged human PDL1): 0.0066 nM | kon (Fc tagged human PDL1): 2e+06 M⁻¹ s⁻¹ | Kd (Fc tagged human CD137): 3 nM | koff (Fc tagged human CD137): 0.00062 s⁻¹ | kon (Fc tagged human CD137): 200000 M⁻¹ s⁻¹ | IC50 (ng/ml), NF-AT potency assay, +HSA (human PDL1 on cells): 275 ng/mL | rel. IC50 (avelumab/test), +HSA (human PDL1 on cells): 0.25 fold | max. activation (%), NFkB reporter, CHO-PD-L1, 24 h, +HSA [1]: 369% | binding result (mouse serum albumin): no binding | koff (human serum albumin): 0.0003 s⁻¹
B1: PRO963 (other)
chain: DIQMTQSPSSLSASVGDRVTITCQASQSINDYLAWYQQKPGKAPKLLIYKASTLASGVPSRFSGSGSGTDFTLTISSLQPEDFATYYCQQGYIITDIDNVFGTGTKVTVLGGGGGSQVQLQESGPGLVKPSETLSLTCKVSGFSFSNSYWICWIRQPPGKGLEWIGCTFVGSSDSTYYANWAKGRVTISVDSSKNQFSLKLSSVTAADTAVYYCARHPSDAVYGYANNLWGQGTLVTVSSGGGGSGGGGSGGGGSGGGGSIQMTQSPSSLSASVGDRVTITCQASQSINNVLAWYQQKPGKAPKLLIYRASTLASGVPSRFSGSGSGTDFTLTISSLQPEDFATYYCQSSYGNYGDFGTGTKVTVLGGGGGSQVQLQESGPGLVKPSETLSLTCKVSGFSFSSGYDMCWIRQPPGKGLEWIGCVVAGSVDITYYASWAKGRVTISVDSSKNQFSLKLSSVTAADTAVYYCARKDAYSDAFNLWGQGTLVTVSSGGGGSGGGGSIQMTQSPSSLSASVGDRVTITCQSSESVYSNNQLSWYQQKPGQPPKLLIYDASDLASGVPSRFSGSGSGTDFTLTISSLQPEDFATYYCAGGFSSSSDTAFGGGTKLTVLGGGGGSGGGGSGGGGSGGGGSEVQLVESGGGLVQPGGSLRLSCAASGFSLSSNAMGWVRQAPGKGLEYIGIISVGGFTYYASWAKGRFTISRDNSKNTVYLQMNSLRAEDTATYFCARDRHGGDSSGAFYLWGQGTLVTVSS
notes: trispecific scDb-scFv anti-PDL1 x CD137 x HSA; also called PRO1051; 38-02-A04 sc01 scDb-i/33-03-G02 sc01 scDb-o/19-01-H04-sc03 scFv
